From IntAct's records for PubMed 10102273

B1: Forkhead box protein O3 (Homo sapiens), O43524 (parent)
chain: MAEAPASPAPLSPLEVELDPEFEPQSRPRSCTWPLQRPELQASPAKPSGETAADSMIPEEEDDEDDEDGGGRAGSAMAIGGGGGSGTLGSGLLLEDSARVLAPGGQDPGSGPATAAGGLSGGTQALLQPQQPLPPPQPGAAGGSGQPRKCSSRRNAWGNLSYADLITRAIESSPDKRLTLSQIYEWMVRCVPYFKDKGDSNSSAGWKNSIRHNLSLHSRFMRVQNEGTGKSSWWIINPDGGKSGKAPRRRAVSMDNSNKYTKSRGRAAKKKAALQTAPESADDSPSQLSKWPGSPTSRSSDELDAWTDFRSRTNSNASTVSGRLSPIMASTELDEVQDDDAPLSPMLYSSSASLSPSVSKPCTVELPRLTDMAGTMNLNDGLTENLMDDLLDNITLPPSQPSPTGGLMQRSSSFPYTTKGSGLGSPTSSFNSTVFGPSSLNSLRQSPMQTIQENKPATFSSMSHYGNQTLQDLLTSDSLSHSDVMMTQSDPLMSQASTAVSAQNSRRNVMLRNDPMMSFAAQPNQGSLVNQNLLHHQHQTQGALGGSRALSNSVSNMGLSESSSLGSAKHQQQSPVSQSMQTLSDSLSGSSLYSTSANLPVMGHEKFPSDLDLDMFNGSLECDMESIIRSELMDADGLDFNFDSLISTQNVVGLNVGNFTGAKQASSQSWVPG

Variants of: B1
Conditions: with 1433z_human YWHAZ

Variant	effect of a mutation on the interaction
S253A	decreasing interaction strength
S315A	with no effect
T32A;S253A	disrupting interaction strength
T32A	decreasing interaction strength

Variants of: B1
Conditions: with akt1_human AKT1, P31749
Chain of akt1_human AKT1, P31749 (P31749 whole entry): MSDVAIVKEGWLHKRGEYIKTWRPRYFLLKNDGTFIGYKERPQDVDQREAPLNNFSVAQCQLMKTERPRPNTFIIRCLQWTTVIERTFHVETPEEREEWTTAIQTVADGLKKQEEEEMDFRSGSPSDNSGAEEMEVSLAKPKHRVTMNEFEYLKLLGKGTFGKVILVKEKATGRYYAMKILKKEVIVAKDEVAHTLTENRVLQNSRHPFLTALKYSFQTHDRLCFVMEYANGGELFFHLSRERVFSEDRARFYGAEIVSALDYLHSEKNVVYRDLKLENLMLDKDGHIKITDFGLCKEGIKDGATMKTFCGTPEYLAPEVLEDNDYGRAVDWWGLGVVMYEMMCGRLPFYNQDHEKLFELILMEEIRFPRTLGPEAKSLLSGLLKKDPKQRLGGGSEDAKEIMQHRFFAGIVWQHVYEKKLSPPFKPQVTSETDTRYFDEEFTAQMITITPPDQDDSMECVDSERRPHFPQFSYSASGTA

Variant	effect of a mutation on the interaction
S315A	with no effect
